The source of these data is patent US20230203124A1.

Test [1] has as its target mutated ERBB2IP 25-AA long peptide presented by HLA-DQB1*0601 (human).
Test [2] has as its target wild-type ERBB2IP 25-AA long peptide on autologous B cells (HLA-DQB1*0601) (human).
Test [3] addresses mutated ALK 25-AA long peptide on autologous B cells (HLA-DQB1*0601) (human).

For “Mock-transduced autologous open-repertoire peripheral blood T cells (cells without a defined receptor)”, the % IFN-γ+/mTCRβ- cells, intracellular IFN-γ by flow cytometry came to 0% in test [1], 0% in test [2] and 1% in test [3].
